Experimental data taken from publication PMC545490, “Mapping and mutation of the conserved DNA polymerase interaction motif (DPIM) located in the C-terminal domain of fission yeast DNA polymerase δ subunit Cdc27” (BMC Molecular Biology, 2004).

Molecular target: T1, LexA-Pol1-278-527 (S. pombe, UniProt P28040 278-527)
T1 construct: Pol1, catalytic subunit of DNA polymerase α, S. pombe, amino acids 278–527; source: yeast two-hybrid fusion (pBTM116, S. cerevisiae CTY10-5d)
T1 sequence (looked up): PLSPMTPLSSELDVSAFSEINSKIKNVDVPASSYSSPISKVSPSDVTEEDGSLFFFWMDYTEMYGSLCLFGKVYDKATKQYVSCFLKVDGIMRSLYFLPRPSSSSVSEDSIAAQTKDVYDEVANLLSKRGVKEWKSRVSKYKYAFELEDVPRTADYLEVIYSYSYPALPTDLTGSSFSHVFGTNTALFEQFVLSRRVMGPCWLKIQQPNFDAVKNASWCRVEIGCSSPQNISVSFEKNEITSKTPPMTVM
Assay: two-hybrid; Gal4 AD prey (pACT2) and LexA bait (pBTM116) in S. cerevisiae lexA op-lacZ strain CTY10-5d; β-galactosidase activity in Miller units
Settings: partners not purified

strength of the interaction, percent of the wild-type value: ~10 % of wild-type
B1: Gal4-Cdc27-273-352-P7 (domain or fragment, S. pombe, UniProt P30261 273-352, looked up)
chain: TEAKSAAPDEPQEIIKSVSGGKRRGKRKVKKYATTKDEEGFLVTKEEEVWESFSAAANISTGTSNVVRNKPTTVNIATKK
notes: positions worked out from oligonucleotides CDC27-P6F and CDC27-P7F and the printed DEE 309–311; also called Cdc27-P7; source: yeast two-hybrid fusion (pACT2, S. cerevisiae CTY10-5d)
